Series [1] has as its target T1, FosB bZIP domain;JunD bZIP domain (Homo sapiens (cloned from identical Mus …, UniProt P53539;P17535 153-219;266-332, |)).
T1 sequence 1: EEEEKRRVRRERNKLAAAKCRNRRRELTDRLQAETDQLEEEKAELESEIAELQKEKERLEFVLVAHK
T1 sequence 2: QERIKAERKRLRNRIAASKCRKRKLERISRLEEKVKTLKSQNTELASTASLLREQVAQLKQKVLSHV
Put plainly: fluorescence polarization.

The series “crystal structure” concerns the molecule itself. The experiment in a line: crystal structure.
For series [2], the target named is T2, H. sapiens JunD bZIP domain (residues Q266-V332) (human, UniProt P17535 266-332).
T2 sequence: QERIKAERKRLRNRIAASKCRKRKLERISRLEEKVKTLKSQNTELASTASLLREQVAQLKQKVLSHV
The experiment in a line: crystal structure.

Series [3] deals with the molecule itself. Put plainly: fluorescence polarisation.

B1: TAMRA AP-1 19-mer (cyclin-dependent kinase 5 promoter) (dsDNA)
DNA 1: CGTCGGTGACTCAAAACAC
DNA 2: GTGTTTTGAGTCACCGACG
With B1, the binding result in series [1] is reported as “binds”.

B2: Homo sapiens FosB bZIP domain (residues E153-K219) (domain or fragment)
chain: EEEEKRRVRRERNKLAAAKCRNRRRELTDRLQAETDQLEEEKAELESEIAELQKEKERLEFVLVAHK
Turning to B2, the binding result (in “crystal structure”; in series [2]) was “binds” each time.

B3: reduced FosB/JunD bZIP heterodimer (FJ^red) (complex)
chain 1: EEEEKRRVRRERNKLAAAKCRNRRRELTDRLQAETDQLEEEKAELESEIAELQKEKERLEFVLVAHK
chain 2: QERIKAERKRLRNRIAASKCRKRKLERISRLEEKVKTLKSQNTELASTASLLREQVAQLKQKVLSHV
For the molecule B3, the binding result in series [3] was “binds”.

B4: oxidized form of FosB/JunD bZIP heterodimer (FJ^oxi) (complex)
chain 1: EEEEKRRVRRERNKLAAAKCRNRRRELTDRLQAETDQLEEEKAELESEIAELQKEKERLEFVLVAHK
chain 2: QERIKAERKRLRNRIAASKCRKRKLERISRLEEKVKTLKSQNTELASTASLLREQVAQLKQKVLSHV
On to B4, for which, in the series “crystal structure”, the binding result is reported as “binds”.

Source of the values: PMC5737521 (Nucleic Acids Research, 2017).
